Measured values published in paper PMC9169775, “Structural conservation among variants of the SARS-CoV-2 spike postfusion bundle” (Proceedings of the National Academy of Sciences of the …, 2022).

Biological target: the molecule itself
Experiment: SDS-PAGE with or without boiling (SDS-resistant oligomer); purified scaffolded HR1HR2 bundle and scaffold alone, with or without boiling

B1: Dps4 from Nostoc punctiforme (NpDps4), scaffold alone (natural protein)
chain: ETQTLLRNFGNVYDNPVLLDRSVTAPVTEGFNVVLASFQALYLQYQKHHFVVEGSEFYSLHEFFNESYNQVQDHIHEIGERLDGLGGVPVATFSKLAELTCFEQESEGVYSSRQMVENDLAAEQAIIGVIRRQAAQAESLGDRGTRYLYEKILLKTEERAYHLSHFLAKDSLTLGFVQAA
notes: Dps4 from Nostoc punctiforme (NpDps4); Construct details in SI Appendix, Supplementary Notes; also called the scaffold alone; source: E. coli BL21(DE3), purified (Ni-NTA, SEC); copies: 12
Q: For B1, which “stoichiometry N” value is on record?
A: 12
